Assay results from patent publication US20060275317A1, “Vaccine compositions for prevention of chronic and infectious diseases” (Biokit S.A., priority 2003, published 2006).
Entries after “also recorded” stand apart in the source; their conditions may differ.

Legend:
human lysozyme [1] = experiment: Lysozyme inhibition assay (EnzCheck, fluorescein-labeled Micrococcus lysodeikticus); type: biochemical
Procedure: (§1) To test this hypothesis, the antibacterial activity of both human and chicken lysozyme, in the presence or absence of GST-Tp17, was assayed using an EnzCheck® lysozyme assay kit (Molecular Probes, Eugene, Oreg.). The assay comprises the use of Fluorescein-labeled Micrococcus lysodeikticus bacterial cells as a fluorescent substrate of lysozyme. In this Gram positive bacterium, the peptidoglycan layer is directly accessible to lysozyme, and has been Fluorescein-labeled such that fluorescence is naturally quenched. Upon lysozyme hydrolysis, quenching is relieved and fluorescein is released in a quantity that is proportional to lysozyme activity. The following experimental protocol was used.
(§2) A typical 100 μl reaction consisted of 25 μl of lysozyme solution (10 units for chicken lysozyme or 50 units for human lysozyme, dissolved in deionized water), 25 μl of the test protein solution and 50 μl of a suspension of fluorescein-labeled Micrococcus lysodeikticus (50 μg/ml). The reaction was incubated for 45 minutes at 37° C. and the fluorescence was measured (λexc.=485 nm; λemi.=520 nm) using a fluorescence multi-well plate reader model FLx800 (Bio TEK instruments, Winoosky, Vt.) equipped with KC junior data acquisition software (Bio TEK Instruments, Winoosky, Vt.). Each experimental point was expressed as the mean and standard deviation corresponding to the reading of three independent wells. Wells containing 50 μl of deoinized water and […] of Fluorescein-labeled Micrococcus lysodeikticus suspension were used as a blank. Two fold serial dilutions of test protein were used to vary the concentration of the test protein from 83.5 to 1.3 μg/well.

chicken lysozyme [2] = target: T1, chicken lysozyme (Gallus gallus, UniProt P00698); experiment: as above; type: biochemical
Procedure: as §1, §2

[3] = target: T2, LISOZIMA CHIESI (chicken lysozyme) (Gallus gallus, UniProt P00698); experiment: Inhibition of commercial chicken lysozyme preparation (EnzCheck); type: biochemical; conditions: lysozyme 4 μg/ml; molar ratio 1:5 to 1:50 GST-Tp17
T2 construct: natural hen egg-derived chicken lysozyme used in commercially available medicinal preparations; purchased CHIESI ESPAÑA SA, Barcelona, Spain
Procedure: (§3) Chicken Lysozyme is a potent antimicrobial enzyme active against both bacteria and viruses. Commercial preparations that contain Lysozyme as an active agent include, but are not limited to, LIZIPAINA® (Boehringer Ingelheim, San Cugat del Vallés, Spain) and LISOZIMA CHIESI (CHIESI ESPAÑA SA, Barcelona, Spain). […] To test this hypothesis, one tablet of each drug, LIZIPAINA® (containing 5 mg chicken lysozyme per tablet) and LISOZIMA CHIESI (containing 250 mg chicken lysozyme per tablet), was resuspended in deionized water (The Millipore Corporation, Bedford, Mass., USA) to adjust the Lysozyme concentration to 4 μg/ml. These samples were then incubated in absence or in presence of increasing amount of either GST-Tp17 or Tp17-HIS. In this experiment the molar ratio between chicken lysozyme and its cognate inhibitor was varied from 1:5 to 1:50 for GST-Tp17 and from 1:16 to 1:160 for Tp17-HIS. After an incubation period of 5 minutes at 20° C. the samples were assayed for lysozyme enzymatic activity using the EnzCheck® Lysozyme assay kit (E-22013; Molecular Probes Inc., Eugene, Oreg., USA) as recommended by the supplier guidelines.

[4] = target: T3, LIZIPAINA (chicken lysozyme) (Gallus gallus, UniProt P00698); experiment: as above; type: biochemical; conditions: lysozyme 4 μg/ml; molar ratio 1:5 to 1:50 GST-Tp17, 1:16 to 1:160 Tp17-HIS
T3 construct: natural hen egg-derived chicken lysozyme used in commercially available medicinal preparations; purchased Boehringer Ingelheim, San Cugat del Vallés, Spain
Procedure: as §3

human lysozyme [5] = experiment: Far Western blot lysozyme-protein interaction assay; type: binding; conditions: 1, 5, 10 μg immobilized lysozyme; washes with 0.05% Tween 20
Procedure: (§4) In order to test this hypothesis, a Far-Western blot lysozyme-protein interaction assay was performed. The assay is summarized in FIG. 5 and comprises generally the following three steps: (1) immobilization of purified lysozyme onto a membrane; (2) probing of the membrane with a ligand likely to bind directly to the lysozyme; and (3) immunodetection of the bound lysozyme-ligand. A detailed experimental procedure is presented below.
(§5) Purified chicken egg white lysozyme and human breast milk lysozyme were purchased from Sigma-Aldrich (Madrid, Spain). Two series of aliquot fractions containing 1 μg, 5 μg, and 10 μg of purified lysozyme and a protein molecular weight marker (SeeBlue Plus II™, Invitrogen SA, Barcelona, Spain) were separated electrophoretically through a 4-12% SDS-PAGE gel using the conditions recommended by the supplier (Invitrogen). The gel was then processed for Western blotting as described in Sambrook et al. (1989) according to art known methods, and the proteins were electro-transferred to an Immobilon™ P PVDF membrane (Millipore Corp., Bedford, Mass.). The presence of lysozyme immobilized onto the PVDF membrane was assessed by staining for 1 minute with Ponceau S stain (Sigma-Aldrich, Madrid, Spain), and then destained by vigorous washing for 5 minutes with desionized water. The membrane was divided in two, each portion containing a protein ladder and three quantities of chicken or human lysozyme (1 μg, 5 μg and 10 μg per lane). Each membrane was then incubated for 16 hours at 4° C. in 5 ml of TBST (10 mM Tris-HCl, pH 8.0, 150 mM NaCl, 0.05% weight/vol. Tween 20™,) supplemented with 5% (weight/vol.) of non-fat skimmed dried SVELTESSE™milk (NESTLÉ, ESPAÑA, Barcelona, Spain) (to make TBST-milk). […]

chicken lysozyme [6] = target: T1, chicken lysozyme; experiment: as above; type: binding; conditions: 1, 5, 10 μg immobilized lysozyme; washes with 0.05% Tween 20
Procedure: as §4, §5

[7] = test system: Micrococcus lysodeikticus; conditions: pH 6.24, 25° C, Micrococcus lysodeikticus substrate; cited from earlier work
human lysozyme [8] = experiment: POD-labeled human lysozyme binding to immobilized β-APP forms (spot blot); conditions: 10 μg spotted; POD-HuLYS diluted 1/1000
Procedure: To test whether the β-APP protein binds huLYS, we performed lysozyme binding assays using purified, recombinant forms of β-APP. Both sAPPα (product number: S9564) and sAPPα (302-612) (product number: S8065) were purchased from Sigma-Aldrich (Tres cantos, Madrid, Spain). 10 μg of each protein was spotted onto a Nytran membrane (Scleicher & Schüell, Dassel, Germany). Non-specific adsorption sites were blocked by incubation for one hour in TBST-milk. After three washes with TBST, the membrane was incubated for one hour with horse radish peroxidase (POD)-labeled human lysozyme diluted 1/1000 in TBST-milk. Next, the membrane was washed three times, for 5 minutes each wash, with TBST. Staining was performed by adding 5 ml of POD chromogenic substrate (TMB, product number: T0565, Sigma). […] Moreover, the β-APP/huLYS protein complex likely serves as a diagnostic marker of Alzheimer's disease.

[9] = test system: Micrococcus lysodeikticus; experiment: Antibacterial activity of lysozymes in presence or absence of Tp17 (EnzCheck Lysozyme assay); type: biochemical; conditions: 1 unit human lysozyme or 230 units rLysozyme; 10 μg GST-Tp17 or Tp17-HIS
Procedure: as §1
In that context, we compared the antibacterial activity of human lysozyme (Ventria Bioscience, Sacramento, Calif., USA) and rLysozyme™ using the EnzCheck Lysozyme assay (E-22013; Molecular Probes, Eugene, Oreg.). We first determined that under the manufacturer's prescribed assay conditions, 1 unit of human lysozyme produced the same intensity of fluorescence as 230 units of rLysozyme™. Next, we measured the fluorescence intensity of either 1 unit of human lysozyme or 230 units of rLysozyme™, in the presence or absence of 10 μg of either GST-Tp17 or Tp17-HIS. […]

[10] = mature protein; cited from earlier work
[11] = 83.5 to 1.3 μg/well test protein

T1 sequence (P00698 19-147): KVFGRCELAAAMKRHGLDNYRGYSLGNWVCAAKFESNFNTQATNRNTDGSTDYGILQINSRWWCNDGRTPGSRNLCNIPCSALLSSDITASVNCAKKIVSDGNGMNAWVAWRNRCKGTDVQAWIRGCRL
T3 sequence (P00698 19-147): as above
T2 sequence (P00698 19-147): as above

GST-Tp17: recombinant fusion protein of GST and Treponema pallidum 17 kDa antigen Tp17 (SEQ ID NO:29)
inhibition of acetyl muramidase activity of human lysozyme (human lysozyme [1]; as little as 1.3 μg/well test protein, 50 units lysozyme, 45 min 37° C): > 85%
inhibition of acetyl muramidase activity of chicken lysozyme (chicken lysozyme [2]; as little as 1.3 μg/well test protein, 10 units lysozyme, 45 min 37° C): > 85%
inhibition of enzymatic antibacterial activity of LISOZIMA CHIESI [3]: strongly inhibited
inhibition of enzymatic antibacterial activity of LIZIPAINA [4]: strongly inhibited
binding to human lysozyme (human lysozyme [5]): detected binding
binding to chicken lysozyme (chicken lysozyme [6]): detected binding

natural human breast milk lysozyme: purified natural human breast milk lysozyme (L-6394; Sigma-Aldrich)
specific activity [7]: 101,000 units/mg protein

recombinant human lysozyme: purified recombinant human lysozyme from transgenic rice (159-53LZ-90P; Ventria Bioscience)
specific activity [7]: 187,000 units/mg protein

sAPPα: longer recombinant fragment of β-APP derived from the APP695 isoform (Sigma S9564)
binding of POD-labeled huLYS to immobilized protein (human lysozyme [8]): binding; also recorded: bound

B1: human lysozyme: human lysozyme (NP_000230); breast milk (Sigma) or recombinant (Ventria) depending on the example (protein)
chain: KVFERCELARTLKRLGMDGYRGISLANWMCLAKWESGYNTRATNYNAGDRSTDYGIFQINSRYWCNDGKTPGAVNACHLSCSALLQDNIADAVACAKRVVRDPQGIRAWVAWRNRCQNRDVRQYVQGCGV
susceptibility of antibacterial activity to inhibition by GST-Tp17 or Tp17-HIS [9]: strongly inhibited

B2: GST-Tp47: control fusion protein of GST and T. pallidum Tp47 antigen (protein)
chain: CGSSHHETHYGYATLSYADYWAGELGQSRDVLLAGNAEADRAGDLDAGMFDAVSRATHGHGAFRQQFQYAVEVLGEKVLSKQETEDSRGRKKWEYETDPSVTKMVRASASFQDLGEDGEIKFEAVEGAVALADRASSFMVDSEEYKITNVKVHGMKFVPVAVPHELKGIAKEKFHFVEDSRVTENTNGLKTMLTEDSFSARKVSSMESPHDLVVDTVGTGYHSRFGSDAEASVMLKRADGSELSHREFIDYVMNFNTVRYDYYGDDASYTNLMASYGTKHSADSWWKTGRVPRISCGINYGFDRFKGSGPGYYRLTLIANGYRDVVADVRFLPKYEGNIDIGLKGKVLTIGGADAETLMDAAVDVFADGQPKLVSDQAVSLGQNVLSADFTPGTEYTVEVRFKEFGSVRAKVVAQ
modifications: left off: a dimerising Fc or GST
notes: control fusion protein of GST and T. pallidum Tp47 antigen
inhibitory effect on human lysozyme acetyl muramidase activity (human lysozyme [1]; [11]): did not exert any inhibitory effect
inhibitory effect on chicken lysozyme acetyl muramidase activity (chicken lysozyme [2]; [11]): did not exert any inhibitory effect
binding to human lysozyme (human lysozyme [5]): No signal was detected
binding to chicken lysozyme (chicken lysozyme [6]): No signal was detected

B3: E. coli Ivy: Escherichia coli inhibitor of vertebrate lysozyme (P45502) (protein)
chain: QDDLTISSLAKGETTKAAFNQMVQGHKLPAWVMKGGTYTPAQTVTLGDETYQVMSACKPHDCGSQRIAVMWSEKSNQMTGLFSTIDEKTSQEKLTWLNVNDALSIDGKTVLFAALTGSLENHPDGFNFK
pI [10]: 5.51

B4: Tp17-HIS: recombinant mature Tp17 (residues 23 to 156) with histidine tail, expressed in E. coli EcBK633 (protein)
chain: VSCTTVCPHAGKAKAEKVECALKGGIFRGTLPAADCPGIDTTVTFNADGTAQKVELALEKKSAPSPLTYRGTWMVREDGIVELSLVSSEQSKAPHEKELYELIDSNSVRYMGAPGAGKPSKEMAPFYVLKKTKK
modifications: left off: small tags and cut ends
notes: recombinant mature Tp17 (residues 23 to 156) with histidine tail, expressed in E. coli EcBK633
inhibition of enzymatic antibacterial activity of LIZIPAINA [4]: strongly inhibited
